Test results from patent US9447158B2.

Biological target: MAPKAP Kinase II (MK2)

Row | Substance | % of … [SEQ ID NO: 124] Reaction Velocity at an Inhibitor Concentration of 100 µM [%]
1 | KALNRQdLGVAA (peptide) | 357
2 | KALNRdQLGVAA (peptide) | 276
3 | KALdNRQLGVAA (peptide) | 95
4 | KALNdRQLGVAA (peptide) | 306
5 | KALNRQLGdVAA (peptide) | 260
